Experimental data reported in publication PMC5103362 (Autophagy, 2016).

Assays:
[1] = molecular target: T1, Vps15 (subunit of the purified yeast complex I) (S. cerevisiae, UniProt P22219 1-1454); experiment: SEC-MALS; purified yeast complex I (co-expressed, co-purified) and gel-filtration purified complex I + Atg38 on S200 10/30; 20 mM Tris pH 8.8, 150 mM NaCl, 1 mM TCEP; settings: both partners purified
T1 construct: Vps15, S. cerevisiae
T1 sequence (looked up): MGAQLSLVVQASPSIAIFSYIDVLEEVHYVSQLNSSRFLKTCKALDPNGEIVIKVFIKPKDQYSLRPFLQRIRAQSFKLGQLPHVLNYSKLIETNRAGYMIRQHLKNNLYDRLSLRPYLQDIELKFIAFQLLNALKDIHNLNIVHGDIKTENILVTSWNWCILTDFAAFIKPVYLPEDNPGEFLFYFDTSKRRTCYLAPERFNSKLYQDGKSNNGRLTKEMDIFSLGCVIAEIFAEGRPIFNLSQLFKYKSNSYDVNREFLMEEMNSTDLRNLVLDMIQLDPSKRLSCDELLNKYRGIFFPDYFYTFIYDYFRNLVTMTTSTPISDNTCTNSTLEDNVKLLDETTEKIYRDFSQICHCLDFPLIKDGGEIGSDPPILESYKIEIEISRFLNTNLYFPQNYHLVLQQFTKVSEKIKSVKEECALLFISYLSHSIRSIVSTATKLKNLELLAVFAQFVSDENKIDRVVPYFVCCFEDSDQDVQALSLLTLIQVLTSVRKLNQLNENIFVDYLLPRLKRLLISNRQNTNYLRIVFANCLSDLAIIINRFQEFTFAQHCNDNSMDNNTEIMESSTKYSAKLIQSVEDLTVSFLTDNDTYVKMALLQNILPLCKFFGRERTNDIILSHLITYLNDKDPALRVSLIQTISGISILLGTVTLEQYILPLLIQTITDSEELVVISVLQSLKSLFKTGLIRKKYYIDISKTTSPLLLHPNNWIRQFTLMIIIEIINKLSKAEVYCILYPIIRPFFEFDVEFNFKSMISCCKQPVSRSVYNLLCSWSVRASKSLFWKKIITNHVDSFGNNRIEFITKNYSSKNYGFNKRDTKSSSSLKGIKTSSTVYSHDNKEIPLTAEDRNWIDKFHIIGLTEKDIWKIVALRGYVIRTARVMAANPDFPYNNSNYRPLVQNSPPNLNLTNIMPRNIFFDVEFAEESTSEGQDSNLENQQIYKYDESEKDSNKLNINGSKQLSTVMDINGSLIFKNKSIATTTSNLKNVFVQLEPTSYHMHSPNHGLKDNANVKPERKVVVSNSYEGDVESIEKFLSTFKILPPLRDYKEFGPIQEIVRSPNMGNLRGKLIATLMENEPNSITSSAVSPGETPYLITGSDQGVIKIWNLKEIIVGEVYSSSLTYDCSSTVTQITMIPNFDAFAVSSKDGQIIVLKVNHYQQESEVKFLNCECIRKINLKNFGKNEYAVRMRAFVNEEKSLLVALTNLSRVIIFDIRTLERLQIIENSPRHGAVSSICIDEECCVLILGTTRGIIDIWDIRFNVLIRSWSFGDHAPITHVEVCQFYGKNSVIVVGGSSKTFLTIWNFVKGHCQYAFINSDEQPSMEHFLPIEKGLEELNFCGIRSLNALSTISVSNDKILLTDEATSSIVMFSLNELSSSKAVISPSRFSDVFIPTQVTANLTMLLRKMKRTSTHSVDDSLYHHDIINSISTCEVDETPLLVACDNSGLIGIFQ

[2] = molecular target: T2, yeast complex I (Vps15-Vps34-Vps30-Atg14 heterotetramer) (S. cerevisiae, UniProt P22219 1-1454; P22543 1-875; Q02948 1-557; P38270 1-344); experiment: pull-down; GST affinity isolation: GST fusions of Atg38 on glutathione Sepharose, purified yeast complex I at 1.78 µM with 10-fold excess of GST fusion; 50 mM Tris pH 8.8, 150 mM NaCl, 1 mM TCEP, on ice 90 min; stained gel; settings: both partners purified
T2 construct: Vps15, S. cerevisiae, subunit of complex I; Vps34, S. cerevisiae, subunit of complex I; Vps30/Atg6, S. cerevisiae, subunit of complex I; Atg14, S. cerevisiae, subunit of complex I; expected mass 379 kDa; also called CI; heterotetrameric S. cerevisiae complex I; copies: 1 + 1 + 1 + 1

[3] = molecular target: the molecule itself; experiment: crystal structure; full-length Atg38 after limited proteolysis with subtilisin; 2.2 Å, MAD with selenomethionine protein
[4] = molecular target: the molecule itself; experiment: SEC-MALS; Atg38 full-length, MIT domain and deletion variants alone on S75 10/30; 20 mM Tris pH 7.9, 300 mM NaCl, 1 mM TCEP

| Binder | stoichiometry N [1] | stoichiometry N [4] | also measured |
| --- | --- | --- | --- |
| Vps34 (subunit of the purified yeast complex I) (enzyme, S. cerevisiae, UniProt P22543 1-875, looked up, Vps34, S. cerevisiae) MSLNNITFCVSQDLDVPLKVKIKSLEGHKPLLKPSQKILNPELMLIGSNVFPSSDLIVSLQVFDKERNRNLTLPIYTPYIPFRNSRTWDYWLTLPIRIKQLTFSSHLRIILWEYNGSKQIPFFNLETSIFNLKDCTLKRGFESLKFRYDVIDHCEVVTDNKDQENLNKYFQGEFTRLPWLDEITISKLRKQRENRTWPQGTFVLNLEFPMLELPVVFIEREIMNTQMNIPTLKNNPGLSTDLREPNRNDPQIKISLGDKYHSTLKFYDPDQPNNDPIEEKYRRLERASKNANLDKQVKPDIKKRDYLNKIINYPPGTKLTAHEKGSIWKYRYYLMNNKKALTKLLQSTNLREESERVEVLELMDSWAEIDIDDALELLGSTFKNLSVRSYAVNRLKKASDKELELYLLQLVEAVCFENLSTFSDKSNSEFTIVDAVSSQKLSGDSMLLSTSHANQKLLKSISSESETSGTESLPIVISPLAEFLIRRALVNPRLGSFFYWYLKSESEDKPYLDQILSSFWSRLDKKSRNILNDQVRLINVLRECCETIKRLKDTTAKKMELLVHLLETKVRPLVKVRPIALPLDPDVLICDVCPETSKVFKSSLSPLKITFKTTLNQPYHLMFKVGDDLRQDQLVVQIISLMNELLKNENVDLKLTPYKILATGPQEGAIEFIPNDTLASILSKYHGILGYLKLHYPDENATLGVQGWVLDNFVKSCAGYCVITYILGVGDRHLDNLLVTPDGHFFHADFGYILGQDPKPFPPLMKLPPQIIEAFGGAESSNYDKFRSYCFVAYSILRRNAGLILNLFELMKTSNIPDIRIDPNGAILRVRERFNLNMSEEDATVHFQNLINDSVNALLPIVIDHLHNLAQYWRT | 1 | – | – |
| GST-Atg38 (1 to 78) (domain or fragment, S. cerevisiae, UniProt Q05789 1-78, looked up, Atg38, S. cerevisiae, MIT domain, residues 1 to 78; also called MIT domain alone; source: E. coli, purified (Glutathione Sepharose, eluted with glutathione); not shown: GST, N-terminal, kept) MSTLAEVYTIIEDAEQECRKGDFTNAKAKYQEAIEVLGPQNENLSQNKLSSDVTQAIDLLKQDITAKIQELELLIEKQ | – | – | binding result [2]: binds |
| Atg38 C-terminal homodimerization domain (crystallized region, residues 119 to 211) (domain or fragment, S. cerevisiae, UniProt Q05789 119-211, looked up, Atg38, S. cerevisiae, crystallized region, residues 119 to 211; Limits are those seen in the crystal; the proteolysed protein was not purified further; A selenomethionine derivative was used for phasing; also called Atg38 C-terminal domain; C-terminal region of Atg38; source: E. coli, purified full-length Atg38 subjected to limited proteolysis with subtilisin) YQDTLSPINDPLLMSILNRLQFNLNNDIQLKTEGGKNSKNSEMKINLRLEQFKKELVLYEQKKFKEYGMKIDEITKENKKLANEIGRLRERWD | – | – | binding result [3]: binds |
| Atg38 capΔ (123 to 181 deleted), recombinant (natural protein, S. cerevisiae, UniProt Q05789 1-226, looked up, GST fusions were eluted with glutathione or cut with TEV as needed; likely cut for SEC-MALS; source: E. coli, purified (Glutathione Sepharose, S75)) MSTLAEVYTIIEDAEQECRKGDFTNAKAKYQEAIEVLGPQNENLSQNKLSSDVTQAIDLLKQDITAKIQELELLIEKQSSEENNIGMVNNNMLIGSVILNNKSPINGISNARNWDNPAYQDTFKEYGMKIDEITKENKKLANEIGRLRERWDSLVESAKQRRDKQKN | – | 2 | – |
| Atg38 stalkΔ (182 to 209 deleted), recombinant (natural protein, S. cerevisiae, UniProt Q05789 1-226, looked up, GST fusions were eluted with glutathione or cut with TEV as needed; likely cut for SEC-MALS; source: E. coli, purified (Glutathione Sepharose, S75)) MSTLAEVYTIIEDAEQECRKGDFTNAKAKYQEAIEVLGPQNENLSQNKLSSDVTQAIDLLKQDITAKIQELELLIEKQSSEENNIGMVNNNMLIGSVILNNKSPINGISNARNWDNPAYQDTLSPINDPLLMSILNRLQFNLNNDIQLKTEGGKNSKNSEMKINLRLEQFKKELVLYEQKKWDSLVESAKQRRDKQKN | – | 2 | – |
| Vps30/Atg6 (subunit of the purified yeast complex I) (natural protein, S. cerevisiae, UniProt Q02948 1-557, looked up, Vps30/Atg6, S. cerevisiae) MKCQTCHLPLQLDPSLEGLSLTQRNLLLSNNSIITATNENVISNKGIEAADNCGPQIPKERLRRLGEIQNIKDLNLKDDKLITDSFVFLNHDDDDNANITSNSREDQRYGNANGNDNKKANSDTSDGTSTFRDHDEEEQEATDEDENQQIQLNSKTLSTQVNAMTNVFNILSSQTNIDFPICQDCCNILINRLKSEYDDAIKERDTYAQFLSKLESQNKEISESNKEKQYSHNLSEKENLKKEEERLLDQLLRLEMTDDDLDGELVRLQEKKVQLENEKLQKLSDQNLMDLNNIQFNKNLQSLKLQYELSLNQLDKLRKINIFNATFKISHSGPFATINGLRLGSIPESVVPWKEINAALGQLILLLATINKNLKINLVDYELQPMGSFSKIKKRMVNSVEYNNSTTNAPGDWLILPVYYDENFNLGRIFRKETKFDKSLETTLEIISEITRQLSTIASSYSSQTLTTSQDESSMNNANDVENSTSILELPYIMNKDKINGLSVKLHGSSPNLEWTTAMKFLLTNVKWLLAFSSNLLSKSITLSPTVNYNDKTISGN | 1 | – | – |
| Atg38 tailΔ (210 to 226 deleted), recombinant (domain or fragment, S. cerevisiae, UniProt Q05789 1-209, looked up, Atg38, S. cerevisiae; GST fusions were eluted with glutathione or cut with TEV as needed; likely cut for SEC-MALS; source: E. coli, purified (Glutathione Sepharose, S75)) MSTLAEVYTIIEDAEQECRKGDFTNAKAKYQEAIEVLGPQNENLSQNKLSSDVTQAIDLLKQDITAKIQELELLIEKQSSEENNIGMVNNNMLIGSVILNNKSPINGISNARNWDNPAYQDTLSPINDPLLMSILNRLQFNLNNDIQLKTEGGKNSKNSEMKINLRLEQFKKELVLYEQKKFKEYGMKIDEITKENKKLANEIGRLRER | – | 2 | – |
| Atg14 (subunit of the purified yeast complex I) (natural protein, S. cerevisiae, UniProt P38270 1-344, looked up, Atg14, S. cerevisiae) MHCPICHHRAHVVYCAHCINTSPSLLLKLKLDLILLKDENKELNGKVEQILNEAMNYDQLDIKRMEKKKDPLMNSLMKLDVLRMKKNNNLIRHRIEQLNERIYSKRNHISELKVEIDNYKCYKVGTGTDKLREQVEISDAKNKLAQVSKICESARDYKLNLLNNWFVIQKLQDNFQIPFAIAFQPLISLKNFRILPLAITNDSINIMWKYISFFSDILMIKLPYTNKICEQPMFEFSDSIQTVVQRLIKLIINILQICRHLKLVPSTPMDIPWLLDQYDVDGLFYNMVKRNKMKCRSVSLYWTFGMLYSMVLDNMNNPQRGHPARRTAPPPTVTGPHDRWYVVG | 1 | – | – |
